From patent publication US20120316085A1 come the findings set out here.

The Kd is the constant that tells how readily two partners part at equilibrium. As usually defined, the koff is a measure of how fast the partners let go of each other. For orientation: kon means the second-order rate constant of association.

Assay [1] addresses c-Myc-containing recombinant protein. Put plainly: SPR; KD against WT as reference.
The target is the same in assay [2]. Put plainly: SPR (Biacore T200), c-Myc-containing recombinant protein immobilised, soluble Fab injected at 5-80 nM, 1:1 Langmuir fit. A general note: In SPR one partner is held on a chip, and binding of the other changes the refractive index at the surface.

B1: aM parental murine Fab (Fab, V domains shown)
VH: QIQLVQSGPELKKPGETVRISCKASGYTFTTAGMQWVQKMPGKGLKWIGWINTHSGVPKYAEDFKGRFAFSLETSASTAYLQMTNLNNEDTATYFCARGYGKGGYFAMDYWGQGTSVTVSS
VL: DVVMTQIPFSLPVSLGDQASISCRSSQSLVHSNGNTYLHWYVQKPGQSPKLLIYKVSNRFSGVPDRFSGSGSGTYFTLKISRVEAEDLGVYFCSQSTRVPWTFGGGTKLEIK
With B1, the Fold change in assay [1] came out at 1 fold. Besides, in assay [2], the Kd is 110 nM, the off-rate (koff) amounted to 0.018 s⁻¹ and the kon was 160000 M⁻¹ s⁻¹.
